Ends that are not written are not given here.
What was measured:
[1] = molecular target: human plasma-derived Factor X zymogen (human, UniProt P00742 41-179; P00742 183-488); assay: cell-based or functional assay
[2] = molecular target: T1, FX activation peptide 12-mer ENPFDLLDFNQT (human); assay: peptide ELISA
T1 peptide: ENPFDLLDFNQT-biotin
How it was run: (§1)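 Nanobodies (FLAG-tagged) or IgG antibodies, 2 μg/mL, incubated 1 h on C-terminally biotinylated peptide captured via streptavidin, washing buffer pH 8.60 containing CaCl₂ and Tween 20. Read-out: HRP-conjugated secondary antibody with TMB colour development.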

[3] = molecular target: T2, FX activation peptide 12-mer GEAPDSITWKPY (human); assay: peptide ELISA
T2 peptide: GEAPDSITWKPY-biotin
How it was run: as §1

[4] = molecular target: T3, FX activation peptide 12-mer SVAQATSSSGEA (human); assay: peptide ELISA
T3 peptide: SVAQATSSSGEA-biotin
How it was run: as §1

[5] = molecular target: T4, FX activation peptide 12-mer FDLLDFNQTQPE (human); assay: peptide ELISA
T4 peptide: FDLLDFNQTQPE-biotin
How it was run: as §1

[6] = molecular target: T5, FX activation peptide 12-mer ITWKPYDAADLD (human); assay: peptide ELISA
T5 peptide: ITWKPYDAADLD-biotin
How it was run: as §1

[7] = molecular target: T6, FX activation peptide 12-mer AADLDPTENPFD (human); assay: peptide ELISA
T6 peptide: AADLDPTENPFD-biotin
How it was run: as §1

[8] = molecular target: T7, FX activation peptide 12-mer FNQTQPERGDNN (human); assay: peptide ELISA
T7 peptide: FNQTQPERGDNN-biotin
How it was run: as §1

[9] = molecular target: T8, FX activation peptide 12-mer NQTQPERGDNNL (human); assay: peptide ELISA
T8 peptide: NQTQPERGDNNL-biotin
How it was run: as §1

[10] = molecular target: T9, FX activation peptide 12-mer VAQATSSSGEAP (human); assay: peptide ELISA
T9 peptide: VAQATSSSGEAP-biotin
How it was run: as §1

[11] = molecular target: T10, FX activation peptide 12-mer SITWKPYDAADL (human); assay: peptide ELISA
T10 peptide: SITWKPYDAADL-biotin
How it was run: as §1

[12] = molecular target: T11, FX activation peptide 12-mer ADLDPTENPFDL (human); assay: peptide ELISA
T11 peptide: ADLDPTENPFDL-biotin
How it was run: as §1

[13] = molecular target: T12, FX activation peptide 12-mer TQPERGDNNLTR (human); assay: peptide ELISA
T12 peptide: TQPERGDNNLTR-biotin
How it was run: as §1

[14] = molecular target: T13, FX activation peptide 12-mer SSSGEAPDSITW (human); assay: peptide ELISA
T13 peptide: SSSGEAPDSITW-biotin
How it was run: as §1

[15] = molecular target: T14, FX activation peptide 12-mer YDAADLDPTENP (human); assay: peptide ELISA
T14 peptide: YDAADLDPTENP-biotin
How it was run: as §1

[16] = molecular target: T15, FX activation peptide 12-mer DLDPTENPFDLL (human); assay: peptide ELISA
T15 peptide: DLDPTENPFDLL-biotin
How it was run: as §1

[17] = molecular target: T16, FX activation peptide 12-mer LDPTENPFDLLD (human); assay: peptide ELISA
T16 peptide: LDPTENPFDLLD-biotin
How it was run: as §1

[18] = molecular target: T17, FX activation peptide 12-mer DLLDFNQTQPER (human); assay: peptide ELISA
T17 peptide: DLLDFNQTQPER-biotin
How it was run: as §1

[19] = molecular target: T18, FX activation peptide 12-mer QATSSSGEAPDS (human); assay: peptide ELISA
T18 peptide: QATSSSGEAPDS-biotin
How it was run: as §1

[20] = molecular target: T19, FX activation peptide 12-mer DSITWKPYDAAD (human); assay: peptide ELISA
T19 peptide: DSITWKPYDAAD-biotin
How it was run: as §1

[21] = molecular target: T20, FX activation peptide 12-mer KPYDAADLDPTE (human); assay: peptide ELISA
T20 peptide: KPYDAADLDPTE-biotin
How it was run: as §1

[22] = molecular target: T21, FX activation peptide 12-mer PDSITWKPYDAA (human); assay: peptide ELISA
T21 peptide: PDSITWKPYDAA-biotin
How it was run: as §1

[23] = molecular target: T22, FX activation peptide 12-mer DFNQTQPERGDN (human); assay: peptide ELISA
T22 peptide: DFNQTQPERGDN-biotin
How it was run: as §1

[24] = molecular target: T23, FX activation peptide 12-mer DAADLDPTENPF (human); assay: peptide ELISA
T23 peptide: DAADLDPTENPF-biotin
How it was run: as §1

[25] = molecular target: T24, FX activation peptide 12-mer LDFNQTQPERGD (human); assay: peptide ELISA
T24 peptide: LDFNQTQPERGD-biotin
How it was run: as §1

[26] = molecular target: T25, FX activation peptide 12-mer SGEAPDSITWKP (human); assay: peptide ELISA
T25 peptide: SGEAPDSITWKP-biotin
How it was run: as §1

[27] = molecular target: T26, FX activation peptide 12-mer AQATSSSGEAPD (human); assay: peptide ELISA
T26 peptide: AQATSSSGEAPD-biotin
How it was run: as §1

[28] = molecular target: T27, FX activation peptide 12-mer NPFDLLDFNQTQ (human); assay: peptide ELISA
T27 peptide: NPFDLLDFNQTQ-biotin
How it was run: as §1

[29] = molecular target: T28, FX activation peptide 12-mer APDSITWKPYDA (human); assay: peptide ELISA
T28 peptide: APDSITWKPYDA-biotin
How it was run: as §1

[30] = molecular target: T29, FX activation peptide 12-mer EAPDSITWKPYD (human); assay: peptide ELISA
T29 peptide: EAPDSITWKPYD-biotin
How it was run: as §1

[31] = molecular target: T30, FX activation peptide 12-mer PYDAADLDPTEN (human); assay: peptide ELISA
T30 peptide: PYDAADLDPTEN-biotin
How it was run: as §1

[32] = molecular target: T31, FX activation peptide 12-mer TWKPYDAADLDP (human); assay: peptide ELISA
T31 peptide: TWKPYDAADLDP-biotin
How it was run: as §1

Sequence of human plasma-derived Factor X zymogen (P00742 41-179, chain 1 of 2): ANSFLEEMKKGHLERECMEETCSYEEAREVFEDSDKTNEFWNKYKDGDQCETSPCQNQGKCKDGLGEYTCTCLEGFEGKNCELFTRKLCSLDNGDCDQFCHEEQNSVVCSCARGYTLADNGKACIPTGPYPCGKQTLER
Sequence of human plasma-derived Factor X zymogen (P00742 183-488, chain 2 of 2): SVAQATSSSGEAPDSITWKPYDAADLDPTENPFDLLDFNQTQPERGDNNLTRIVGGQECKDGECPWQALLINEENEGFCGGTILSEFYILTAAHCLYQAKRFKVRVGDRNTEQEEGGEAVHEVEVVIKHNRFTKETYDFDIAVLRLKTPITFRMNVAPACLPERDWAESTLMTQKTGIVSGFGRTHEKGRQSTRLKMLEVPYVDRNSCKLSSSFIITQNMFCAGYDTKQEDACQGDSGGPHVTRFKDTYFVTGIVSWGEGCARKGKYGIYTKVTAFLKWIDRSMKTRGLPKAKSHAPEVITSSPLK

B1: Nb 501A02 (VHH)
VHH: EVQLVESGGGLVQPGGSLRLSCAASGFTFSNYEMSWVRQAPGKGLEWVSDIGSGGGVSTYYADSVKGRFTISRDNAKNTLYLQMNSLKPEDTAMYYCARGWTYGSDGMDYWGKGTLVTVSS
notes: monovalent control Nanobody; also called control Nanobody; not shown: C-terminal FLAG3 and HIS6 tag
In the case of B1, the “Increase in FX activation (fold)” value [1] is reported as 0.8 fold, the “ELISA signal relative to background” value [2] is reported as 0.82 and the binding result [2] is reported as “no binding (tested: 2 µg/mL)”. For the same binder, the “ELISA signal relative to background” value [3] was 0.94, the binding result [3] was “no binding (tested: 2 µg/mL)” and the “ELISA signal relative to background” value [4] was 0.74. For the same binder, the binding result [4] was “no binding (tested: 2 µg/mL)”, the “ELISA signal relative to background” value [5] was 0.85 and the binding result [5] was “no binding (tested: 2 µg/mL)”. The “ELISA signal relative to background” value [6] was 0.74, the binding result [6] was “no binding (tested: 2 µg/mL)” and the “ELISA signal relative to background” value [7] was 0.79. For the same binder, the binding result [7] was “no binding (tested: 2 µg/mL)”, the “ELISA signal relative to background” value [8] was 0.71 and the binding result [8] was “no binding (tested: 2 µg/mL)”. The “ELISA signal relative to background” value [9] was 0.71, the binding result [9] was “no binding (tested: 2 µg/mL)” and the “ELISA signal relative to background” value [10] was 0.88. The binding result [10] was “no binding (tested: 2 µg/mL)”, the “ELISA signal relative to background” value [11] was 0.71 and the binding result [11] was “no binding (tested: 2 µg/mL)”. The “ELISA signal relative to background” value [12] was 0.71, the binding result [12] was “no binding (tested: 2 µg/mL)” and the “ELISA signal relative to background” value [13] was 0.85. The binding result [13] was “no binding (tested: 2 µg/mL)”, the “ELISA signal relative to background” value [14] was 0.82 and the binding result [14] was “no binding (tested: 2 µg/mL)”. The “ELISA signal relative to background” value [15] was 0.71, the binding result [15] was “no binding (tested: 2 µg/mL)” and the “ELISA signal relative to background” value [16] was 0.79. The binding result [16] was “no binding (tested: 2 µg/mL)”, the “ELISA signal relative to background” value [17] was 0.91 and the binding result [17] was “no binding (tested: 2 µg/mL)”. For the same binder, the “ELISA signal relative to background” value [18] was 0.76, the binding result [18] was “no binding (tested: 2 µg/mL)” and the “ELISA signal relative to background” value [19] was 0.82. For the same binder, the binding result [19] was “no binding (tested: 2 µg/mL)”, the “ELISA signal relative to background” value [20] was 0.79 and the binding result [20] was “no binding (tested: 2 µg/mL)”. The “ELISA signal relative to background” value [21] was 0.82, the binding result [21] was “no binding (tested: 2 µg/mL)” and the “ELISA signal relative to background” value [22] was 0.79. The binding result [22] was “no binding (tested: 2 µg/mL)”, the “ELISA signal relative to background” value [23] was 0.71 and the binding result [23] was “no binding (tested: 2 µg/mL)”. For the same binder, the “ELISA signal relative to background” value [24] was 0.88, the binding result [24] was “no binding (tested: 2 µg/mL)” and the “ELISA signal relative to background” value [25] was 0.74. The binding result [25] was “no binding (tested: 2 µg/mL)”, the “ELISA signal relative to background” value [26] was 0.76 and the binding result [26] was “no binding (tested: 2 µg/mL)”. For the same binder, the “ELISA signal relative to background” value [27] was 0.79, the binding result [27] was “no binding (tested: 2 µg/mL)” and the “ELISA signal relative to background” value [28] was 0.94. The binding result [28] was “no binding (tested: 2 µg/mL)”, the “ELISA signal relative to background” value [29] was 0.74 and the binding result [29] was “no binding (tested: 2 µg/mL)”. The “ELISA signal relative to background” value [30] was 0.76, the binding result [30] was “no binding (tested: 2 µg/mL)” and the “ELISA signal relative to background” value [31] was 0.79. For the same binder, the binding result [31] was “no binding (tested: 2 µg/mL)”, the “ELISA signal relative to background” value [32] was 0.74 and the binding result [32] was “no binding (tested: 2 µg/mL)”.
